Assay results reported in patent publication US20190321401A1 (JUNO THERAPEUTICS, published 2019).

T1: HPV 16 E6 peptide on HLA-A*02:01 (human)
T1 peptide: TIHDIILECV

T2: HPV 16 E7 peptide on HLA-A*02:01 (human)
T2 peptide: YMLDLQPET

B1: TCR 58 (mouse constant regions) (TCR, V domains shown)
V domain 1: RKEVEQDPGPFNVPEGATVAFNCTYSNSASQSFFWYRQDCRKEPKLLMSVYSSGNEDGRFTAQLNRASQYISLLIRDSKLSDSATYLCVVNRDNYGQNFVFGPGTRLSVLP
V domain 2: EPEVTQTPSHQVTQMGQEVILRCVPISNHLYFYWYRQILGQKVEFLVSFYNNEISEKSEIFDDQFSVERPDGSNFTLKIRSTKLEDSAMYFCASTPRSSYEQYFGPGTRLTVTE
B2: TCR 60 (mouse constant regions) (TCR, V domains shown)
V domain 1: QKEVEQNSGPLSVPEGAIASLNCTYSDRGSQSFFWYRQYSGKSPELIMFIYSNGDKEDGRFTAQLNKASQYVSLLIRDSQPSDSATYLCAVNMLGSGGSNYKLTFGKGTLLTVNP
V domain 2: EPEVTQTPSHQVTQMGQEVILRCVPISNHLYFYWYRQILGQKVEFLVSFYNNEISEKSEIFDDQFSVERPDGSNFTLKIRSTKLEDSAMYFCAISRTVSYEQYFGPGTRLTVTE
B3: TCR 61 (mouse constant regions) (TCR, V domains shown)
V domain 1: QKEVEQNSGPLSVPEGAIASLNCTYSDRGSQSFFWYRQYSGKSPELIMFIYSNGDKEDGRFTAQLNKASQYVSLLIRDSQPSDSATYLCAVNIENNNARLMFGDGTQLVVKP
V domain 2: EPEVTQTPSHQVTQMGQEVILRCVPISNHLYFYWYRQILGQKVEFLVSFYNNEISEKSEIFDDQFSVERPDGSNFTLKIRSTKLEDSAMYFCASTKRFSYEQYFGPGTRLTVTE
B4: TCR 59 (mouse constant regions) (TCR, V domains shown)
V domain 1: GQQVMQIPQYQHVQEGEDFTTYCNSSTTLSNIQWYKQRPGGHPVFLIQLVKSGEVKKQKRLTFQFGEAKKNSSLHITATQTTDVGTYFCAPKREYGNKLVFGAGTILRVKS
V domain 2: EPEVTQTPSHQVTQMGQEVILRCVPISNHLYFYWYRQILGQKVEFLVSFYNNEISEKSEIFDDQFSVERPDGSNFTLKIRSTKLEDSAMYFCAYSGRASYEQYFGPGTRLTVTE
B5: TCR 58 (TCR, V domains shown)
Valpha: RKEVEQDPGPFNVPEGATVAFNCTYSNSASQSFFWYRQDCRKEPKLLMSVYSSGNEDGRFTAQLNRASQYISLLIRDSKLSDSATYLCVVNRDNYGQNFVFGPGTRLSVLP
Vbeta: EPEVTQTPSHQVTQMGQEVILRCVPISNHLYFYWYRQILGQKVEFLVSFYNNEISEKSEIFDDQFSVERPDGSNFTLKIRSTKLEDSAMYFCASTPRSSYEQYFGPGTRLTVT
B6: TCR 64 (mouse constant regions) (TCR, V domains shown)
V domain 1: AQKVTQAQTEISVVEKEDVTLDCVYETRDTTYYLFWYKQPPSGELVFLIRRNSFDEQNEISGRYSWNFQKSTSSFNFTITASQVVDSAVYFCALSGVDNYGQNFVFGPGTRLSVLP
V domain 2: DTAVSQTPKYLVTQMGNDKSIKCEQNLGHDTMYWYKQDSKKFLKIMFSYNNKELIINETVPNRFSPKSPDKAHLNLHINSLELGDSAVYFCASSQGEAGANVLTFGAGSRLTVLE
B7: TCR 64 (TCR, V domains shown)
Valpha: AQKVTQAQTEISVVEKEDVTLDCVYETRDTTYYLFWYKQPPSGELVFLIRRNSFDEQNEISGRYSWNFQKSTSSFNFTITASQVVDSAVYFCALSGVDNYGQNFVFGPGTRLSVLP
Vbeta: DTAVSQTPKYLVTQMGNDKSIKCEQNLGHDTMYWYKQDSKKFLKIMFSYNNKELIINETVPNRFSPKSPDKAHLNLHINSLELGDSAVYFCASSQGEAGANVLTFGAGSRLTVL
B8: TCR 56 (mouse constant regions) (TCR, V domains shown)
V domain 1: GQNIDQPTEMTATEGAIVQINCTYQTSGFNGLFWYQQHAGEAPTFLSYNVLDGLEEKGRFSSFLSRSKGYSYLLLKELQMKDSASYLCAVRDWGYGGATNKLIFGTGTLLAVQP
V domain 2: NAGVMQNPRHLVRRRGQEARLRCSPMKGHSHVYWYRQLPEEGLKFMVYLQKENIIDESGMPKERFSAEFPKEGPSILRIQQVVRGDSAAYFCASSPDESRDSNQPQHFGDGTRLSILE
notes: Human variable regions on mouse constant regions with added cysteines (Calpha Thr48Cys, Cbeta Ser57Cys); Entries are the full chains without signal peptide
B9: TCR 56 (TCR, V domains shown)
Valpha: GQNIDQPTEMTATEGAIVQINCTYQTSGFNGLFWYQQHAGEAPTFLSYNVLDGLEEKGRFSSFLSRSKGYSYLLLKELQMKDSASYLCAVRDWGYGGATNKLIFGTGTLLAVQP
Vbeta: NAGVMQNPRHLVRRRGQEARLRCSPMKGHSHVYWYRQLPEEGLKFMVYLQKENIIDESGMPKERFSAEFPKEGPSILRIQQVVRGDSAAYFCASSPDESRDSNQPQHFGDGTRLSIL
B10: TCR 57 (mouse constant regions) (TCR, V domains shown)
V domain 1: TQLLEQSPQFLSIQEGENLTVYCNSSSVFSSLQWYRQEPGEGPVLLVTVVTGGEVKKLKRLTFQFGDARKDSSLHITAAQPGDTGLYLCAGARNFNKFYFGSGTKLNVKP
V domain 2: GAVVSQHPSWVICKSGTSVKIECRSLDFQATTMFWYRQFPKQSLMLMATSNEGSKATYEQGVEKDKFLINHASLTLSTLTVTSAHPEDSSFYICSARSWRGGLEQFFGPGTRLTVLE
B11: TCR 65 (mouse constant regions) (TCR, V domains shown)
V domain 1: EDQVTQSPEALRLQEGESSSLNCSYTVSGLRGLFWYRQDPGKGPEFLFTLYSAGEEKEKERLKATLTKKESFLHITAPKPEDSATYLCAVQAERGSTLGRLYFGRGTQLTVWP
V domain 2: DVKVTQSSRYLVKRTGEKVFLECVQDMDHENMFWYRQDPGLGLRLIYFSYDVKMKEKGDIPEGYSVSREKKERFSLILESASTNQTSMYLCASSLWGRRNTGELFFGEGSRLTVLE
B12: TCR 63 (mouse constant regions) (TCR, V domains shown)
V domain 1: SQELEQSPQSLIVQEGKNLTINCTSSKTLYGLYWYKQKYGEGLIFLMMLQKGGEEKSHEKITAKLDEKKQQSSLHITASQPSHAGIYLCGADIDDYKLSFGAGTTVTVRA
V domain 2: GAGVSQSPRYKVAKRGQDVALRCDPISGHVSLFWYQQALGQGPEFLTYFQNEAQLDKSGLPSDRFFAERPEGSVSTLKIQRTQQEDSAVYLCASRPRQGYNDNEQFFGPGTRLTVLE
B13: TCR 63 (TCR, V domains shown)
Valpha: SQELEQSPQSLIVQEGKNLTINCTSSKTLYGLYWYKQKYGEGLIFLMMLQKGGEEKSHEKITAKLDEKKQQSSLHITASQPSHAGIYLCGADIDDYKLSFGAGTTVTVRA
Vbeta: GAGVSQSPRYKVAKRGQDVALRCDPISGHVSLFWYQQALGQGPEFLTYFQNEAQLDKSGLPSDRFFAERPEGSVSTLKIQRTQQEDSAVYLCASRPRQGYNDNEQFFGPGTRLTVL
B14: TCR 59 (TCR, V domains shown)
Valpha: GQQVMQIPQYQHVQEGEDFTTYCNSSTTLSNIQWYKQRPGGHPVFLIQLVKSGEVKKQKRLTFQFGEAKKNSSLHITATQTTDVGTYFCAPKREYGNKLVFGAGTILRVKS
Vbeta: EPEVTQTPSHQVTQMGQEVILRCVPISNHLYFYWYRQILGQKVEFLVSFYNNEISEKSEIFDDQFSVERPDGSNFTLKIRSTKLEDSAMYFCAYSGRASYEQYFGPGTRLTVT
B15: TCR 61 (TCR, V domains shown)
Valpha: QKEVEQNSGPLSVPEGAIASLNCTYSDRGSQSFFWYRQYSGKSPELIMFIYSNGDKEDGRFTAQLNKASQYVSLLIRDSQPSDSATYLCAVNIENNNARLMFGDGTQLVVKP
Vbeta: EPEVTQTPSHQVTQMGQEVILRCVPISNHLYFYWYRQILGQKVEFLVSFYNNEISEKSEIFDDQFSVERPDGSNFTLKIRSTKLEDSAMYFCASTKRFSYEQYFGPGTRLTVT
B16: TCR 60 (TCR, V domains shown)
Valpha: QKEVEQNSGPLSVPEGAIASLNCTYSDRGSQSFFWYRQYSGKSPELIMFIYSNGDKEDGRFTAQLNKASQYVSLLIRDSQPSDSATYLCAVNMLGSGGSNYKLTFGKGTLLTVNP
Vbeta: EPEVTQTPSHQVTQMGQEVILRCVPISNHLYFYWYRQILGQKVEFLVSFYNNEISEKSEIFDDQFSVERPDGSNFTLKIRSTKLEDSAMYFCAISRTVSYEQYFGPGTRLTVT
B17: TCR 62 (mouse constant regions) (TCR, V domains shown)
V domain 1: AQTVTQSQPEMSVQEAETVTLSCTYDTSENNYYLFWYKQPPSRQMILVIRQEAYKQQNATENRFSVNFQKAAKSFSLKISDSQLGDTAMYFCALYTYKYIFGTGTRLKVLA
V domain 2: EAGVAQSPRYKIIEKRQSVAFWCNPISGHATLYWYQQILGQGPKLLIQFQNNGVVDDSQLPKDRFSAERLKGVDSTLKIQPAKLEDSAVYLCASSLDTRGSSYNEQFFGPGTRLTVLE

What was measured:
[1] = biological target: T3, HPV 16 E6(29-38)-peptide-MHC tetramer complex (human papillomavirus 16 (HPV16); human); assay: flow cytometry, peptide-MHC tetramer staining of TCR-transduced primary human T cells;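 note: normal donor T cells activated with anti-CD3/anti-CD28, then lentivirally transduced with TCRs, with mock-transduced cells as control, co-stained for the transduction marker and CD8, tetramers presented by HLA-A02:01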
T3 construct: also called E6(29-38)-specific tetramer
Protocol: (§1) CD8+ and CD4+ T cells were isolated from normal human donors and were stimulated with anti-CD3/anti-CD28 reagent, and then were transduced with a lentiviral preparation encoding various TCRs, or were subjected to a mock transduction control (cells treated under the same conditions used for lentiviral transduction but without addition of lentivirus). Following transduction, the cells were cultured in media containing human serum and cytokines.
(§2) After transduction, the cells were assessed by flow cytometry for staining with an antibody that recognized the surrogate marker, an anti-CD8 antibody, and a HPV 16 E6(29-38)- or HPV16 E7(11-19)-peptide-MHC tetramer complex. […] The reference TCR contains a mouse constant region.
(§3) Column 3 and 4 sets forth the percentage of CD8+ cells and CD8− cells (CD4+ cells) positive for E7(11-19)-specific tetramer staining in flow cytometry. Column 5 and 6 sets forth the percentage of CD8+ cells and CD8− cells (CD4+ cells) positive for E6(29-38)-specific tetramer staining in flow cytometry.

[2] = biological target: T4, HPV16 E7(11-19)-peptide-MHC tetramer complex (human papillomavirus 16 (HPV16); human); assay: as above
T4 construct: also called E7(11-19)-specific tetramer; MHC/E7(11-19) peptide tetramer
Protocol: as §1, §2, §3

[3] = biological target: T1, HPV 16 E6 peptide on HLA-A*02:01; assay: multimer staining
[4] = biological target: T2, HPV 16 E7 peptide on HLA-A*02:01; assay: multimer staining

| Binder | % of CD8+ cells positive for E6(29-38) tetramer staining [1] | % of CD8- (CD4+) cells positive for E6(29-38) tetramer staining [1] | % of CD8+ cells positive for E7(11-19) tetramer staining [2] | % of CD8- (CD4+) cells positive for E7(11-19) tetramer staining [2] | binding result [3] | binding result [4] |
| --- | --- | --- | --- | --- | --- | --- |
| B1 | 0.14% | 0.11% | 9.91% | 0.1% |  |  |
| B2 | 0.15% | 0.07% | 21.5% | 0.13% |  |  |
| B3 | 0.15% | 0.12% | 17.2% | 0.13% |  |  |
| B4 | 0.11% | 0.16% | 28% | 0.16% |  |  |
| B5 |  |  |  |  | no recognition | recognises |
| B6 | 0.17% | 0.11% | 0.13% | 0.06% |  |  |
| B7 |  |  |  |  | no recognition |  |
| B8 | 0.07% | 0.12% | 0.05% | 0.13% |  |  |
| B9 |  |  |  |  | no recognition | no recognition |
| B10 | 0.23% | 0.19% | 95% | 86% |  |  |
| B11 |  |  | 0.26% | 0.07% |  |  |
| B12 | 0.23% | 0.12% | 0.3% | 0.25% |  |  |
| B13 |  |  |  |  | no recognition |  |
| B14 |  |  |  |  | no recognition | recognises |
| B15 |  |  |  |  | no recognition | recognises |
| B16 |  |  |  |  | no recognition | recognises |
| B17 | 0.2% | 0.04% | 38.8% | 0.07% |  |  |
